# Results published in US20050064507.
# B1: PKC-zeta (protein)
# chain: MPSRTGPKMEGSGGRVRLKAHYGGDIFITSVDAATTFEELCEEVRDMCRLHQQHPLTLKWVDSEGDPCTVSSQMELEEAFRLARQCRDEGLIIHVFPSTPEQPGLPCPGEDKSIYRRGARRWRKLYRANGHLFQAKRFNRRAYCGQCSERIWGLARQGYRCINCKLLVHKRCHGLVPLTCRKHMDSVMPSQEPPVDDKNEDADLPSEETDGIAYISSSRKHDSIKDDSEDLKPVIDGMDGIKISQGLGLQDFDLIRVIGRGSYAKVLLVRLKKNDQIYAMKVVKKELVHDDEDIDWVQTEKHVFEQASSNPFLVGLHSCFQTTSRLFLVIEYVNGGDLMFHMQRQRKLPEEHARFYAAEICIALNFLHERGIIYRDLKLDNVLLDADGHIKLTDYGMCKEGLGPGDTTSTFCGTPNYIAPEILRGEEYGFSVDWWALGVLMFEMMAGRSPFDIITDNPDMNTEDYLFQVILEKPIRIPRFLSVKASHVLKGFLNKDPKERLGCRPQTGFSDIKSHAFFRSIDWDLLEKKQALPPFQPQITDDYGLDNFDTQFTSEPVQLTPDDEDAIKRIDQSEFEGFEYINPLLLSTEESV
# Experiments:
# [1] = biological target: T1, NIK peptide TEGKMARVAWKGKRRSKARK (SEQ ID NO:164) (not fully specified)
# T1 chain: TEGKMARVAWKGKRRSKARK
# [2] = biological target: T2, calcium channel, voltage-dependent, L type, alpha peptide RDIRQSPKRGFLRSASLGRR (SEQ ID NO:147) (not fully specified)
# T2 chain: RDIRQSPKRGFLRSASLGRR
# [3] = biological target: T3, PKD1 peptide RVVQSVKHTKRKSSTVMK (SEQ ID NO:149) (not fully specified)
# T3 chain: RVVQSVKHTKRKSSTVMK
# [4] = biological target: T4, AF15q14 peptide GFLNEPLSSKSQRRKSLKLK (SEQ ID NO:132) (not fully specified)
# T4 chain: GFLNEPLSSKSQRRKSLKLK
# [5] = biological target: T5, ubiquitin specific protease 8 peptide RARRDSLKKIEIW (SEQ ID NO:136) (not fully specified)
# T5 chain: RARRDSLKKIEIW
# [6] = biological target: T6, MCM2 peptide VQRHRSMRKTFARYLSFRRD (SEQ ID NO:129) (not fully specified)
# T6 chain: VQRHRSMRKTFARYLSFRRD
# [7] = biological target: T7, ERN1 peptide KLAVGRHSFSRRSGV (SEQ ID NO:94) (not fully specified)
# T7 chain: KLAVGRHSFSRRSGV
# [8] = biological target: T8, PARIS1 peptide EYLERRASRRRAV (SEQ ID NO:89) (not fully specified)
# T8 chain: EYLERRASRRRAV
# [9] = biological target: T9, MARCKS peptide KKKRFSFKKSFKLSGFSFKK (SEQ ID NO:111) (not fully specified)
# T9 chain: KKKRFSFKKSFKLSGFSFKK
# [10] = biological target: T10, p47phox peptide QAQRQIKRGAPPRRSSIRNA (SEQ ID NO:146) (not fully specified)
# T10 chain: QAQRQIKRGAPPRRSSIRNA
# [11] = biological target: T11, GABA A receptor beta 2 peptide ERHVAQKKSRLRRRASQLKI (SEQ ID NO:142) (not fully specified)
# T11 chain: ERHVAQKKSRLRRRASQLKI
# [12] = biological target: T12, SPTBN4 peptide EGGDRRASGRRK (SEQ ID NO:110) (not fully specified)
# T12 chain: EGGDRRASGRRK
# [13] = biological target: T13, KCNH2 peptide RQRKRKLSFRRRTDKD (SEQ ID NO:86) (not fully specified)
# T13 chain: RQRKRKLSFRRRTDKD
# [14] = biological target: T14, NMDAR1 peptide RAITSTLASSFKRRR (SEQ ID NO:122) (not fully specified)
# T14 chain: RAITSTLASSFKRRR
# [15] = biological target: T15, dag kinase iota peptide PQNSLKASNRKKKRTSFKRK (SEQ ID NO:151) (not fully specified)
# T15 chain: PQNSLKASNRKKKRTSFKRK
# [16] = biological target: T16, AKAP12 peptide AGWRKKTSFRKPKED (SEQ ID NO:99) (not fully specified)
# T16 chain: AGWRKKTSFRKPKED
# [17] = biological target: T17, CHRM1 peptide RKIPKRPGSVHRTPSRQ (SEQ ID NO:83) (not fully specified)
# T17 chain: RKIPKRPGSVHRTPSRQ
# [18] = biological target: T18, NCF1 peptide GAPPRRSSIRNAH (SEQ ID NO:101) (not fully specified)
# T18 chain: GAPPRRSSIRNAH
# [19] = biological target: T19, NF1 peptide SQVQKQRSAGSFKRNSIKKI (SEQ ID NO:127) (not fully specified)
# T19 chain: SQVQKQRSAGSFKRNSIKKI
# [20] = biological target: T20, M1 muscarinic receptor peptide RWDKRRWRKIPKRPGSVHRT (SEQ ID NO:155) (not fully specified)
# T20 chain: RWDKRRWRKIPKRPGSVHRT
# [21] = biological target: T21, beta adducin peptide KKKFRTPSFLKKSKK (SEQ ID NO:135) (not fully specified)
# T21 chain: KKKFRTPSFLKKSKK
# [22] = biological target: T22, GABRB2 peptide QKKSRLRRRASQLKI (SEQ ID NO:84) (not fully specified)
# T22 chain: QKKSRLRRRASQLKI
# [23] = biological target: T23, kinesin 3C peptide LEKRGMLGKRPRRKSSRRKK (SEQ ID NO:133) (not fully specified)
# T23 chain: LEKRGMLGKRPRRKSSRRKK
# [24] = biological target: T24, nuclear RNA export factor 3 peptide VRYTPYTISPYNRKGSFRKQ (SEQ ID NO:143) (not fully specified)
# T24 chain: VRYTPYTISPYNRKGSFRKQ
# [25] = biological target: T25, plectin peptide PLKEKKRERKTSSKSSVRKR (SEQ ID NO:125) (not fully specified)
# T25 chain: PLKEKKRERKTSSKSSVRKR
# [26] = biological target: T26, ankyrin R peptide DLIEGRKGAQIVKRASLKRG (SEQ ID NO:152) (not fully specified)
# T26 chain: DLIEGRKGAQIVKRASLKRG
# [27] = biological target: T27, PPP1R14A peptide QKRHARVTVKYDRRE (SEQ ID NO:107) (not fully specified)
# T27 chain: QKRHARVTVKYDRRE
# [28] = biological target: T28, p164-RhoGEF peptide PRLIRRGSKKRPAR (SEQ ID NO:82) (not fully specified)
# T28 chain: PRLIRRGSKKRPAR
# [29] = biological target: T29, dag kinase zeta peptide KKKKRASFKRKSSKKG (SEQ ID NO:114) (not fully specified)
# T29 chain: KKKKRASFKRKSSKKG
# [30] = biological target: T30, slp4 peptide TYLLPDKSRQGKRKTSIKRD (SEQ ID NO:153) (not fully specified)
# T30 chain: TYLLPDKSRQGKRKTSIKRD
# [31] = biological target: T31, ANK1 peptide AQIVKRASLKRGKQ (SEQ ID NO:90) (not fully specified)
# T31 chain: AQIVKRASLKRGKQ
protein,measurement,setting,value
B1,"in vitro phosphorylation, 1 uM peptide (% of best substrate)",[1],3
same,"in vitro phosphorylation, 10 uM peptide (% of best substrate)",[1],2
same,"in vitro phosphorylation, 1 uM peptide (% of best substrate)",[2],28
same,"in vitro phosphorylation, 10 uM peptide (% of best substrate)",[2],34
same,"in vitro phosphorylation, 1 uM peptide (% of best substrate)",[3],3
same,"in vitro phosphorylation, 10 uM peptide (% of best substrate)",[3],5
same,"in vitro phosphorylation, 1 uM peptide (% of best substrate)",[4],19
same,"in vitro phosphorylation, 10 uM peptide (% of best substrate)",[4],61
same,"in vitro phosphorylation, 1 uM peptide (% of best substrate)",[5],6
same,"in vitro phosphorylation, 10 uM peptide (% of best substrate)",[5],9
same,"in vitro phosphorylation, 1 uM peptide (% of best substrate)",[6],51
same,"in vitro phosphorylation, 10 uM peptide (% of best substrate)",[6],31
same,in vitro phosphorylation (% of best substrate),[7],10
same,in vitro phosphorylation (% of best substrate),[8],14
same,in vitro phosphorylation (% of best substrate),[9],9
same,"in vitro phosphorylation, 1 uM peptide (% of best substrate)",[10],32
same,"in vitro phosphorylation, 10 uM peptide (% of best substrate)",[10],56
same,"in vitro phosphorylation, 1 uM peptide (% of best substrate)",[11],22
same,"in vitro phosphorylation, 10 uM peptide (% of best substrate)",[11],37
same,in vitro phosphorylation (% of best substrate),[12],3
same,in vitro phosphorylation (% of best substrate),[13],28
same,"in vitro phosphorylation, 1 uM peptide (% of best substrate)",[14],20
same,"in vitro phosphorylation, 10 uM peptide (% of best substrate)",[14],17
same,"in vitro phosphorylation, 1 uM peptide (% of best substrate)",[15],15
same,"in vitro phosphorylation, 10 uM peptide (% of best substrate)",[15],28
same,in vitro phosphorylation (% of best substrate),[16],10
same,in vitro phosphorylation (% of best substrate),[17],4
same,in vitro phosphorylation (% of best substrate),[18],3
same,"in vitro phosphorylation, 1 uM peptide (% of best substrate)",[19],19
same,"in vitro phosphorylation, 10 uM peptide (% of best substrate)",[19],19
same,"in vitro phosphorylation, 1 uM peptide (% of best substrate)",[20],19
same,"in vitro phosphorylation, 10 uM peptide (% of best substrate)",[20],6
same,"in vitro phosphorylation, 1 uM peptide (% of best substrate)",[21],11
same,"in vitro phosphorylation, 10 uM peptide (% of best substrate)",[21],13
same,in vitro phosphorylation (% of best substrate),[22],19
same,"in vitro phosphorylation, 1 uM peptide (% of best substrate)",[23],27
same,"in vitro phosphorylation, 10 uM peptide (% of best substrate)",[23],30
same,"in vitro phosphorylation, 1 uM peptide (% of best substrate)",[24],22
same,"in vitro phosphorylation, 10 uM peptide (% of best substrate)",[24],79
same,"in vitro phosphorylation, 1 uM peptide (% of best substrate)",[25],13
same,"in vitro phosphorylation, 10 uM peptide (% of best substrate)",[25],12
same,"in vitro phosphorylation, 1 uM peptide (% of best substrate)",[26],4
same,"in vitro phosphorylation, 10 uM peptide (% of best substrate)",[26],9
same,in vitro phosphorylation (% of best substrate),[27],1
same,in vitro phosphorylation (% of best substrate),[28],38
same,"in vitro phosphorylation, 1 uM peptide (% of best substrate)",[29],45
same,"in vitro phosphorylation, 10 uM peptide (% of best substrate)",[29],51
same,"in vitro phosphorylation, 1 uM peptide (% of best substrate)",[30],6
same,"in vitro phosphorylation, 10 uM peptide (% of best substrate)",[30],13
same,in vitro phosphorylation (% of best substrate),[31],5
